Test results: US20050049193A1

Biological target: OB-Rb, full-length (long isoform) leptin receptor expressed on transfected GT1-7 cells (mouse), P48356
Assay: cell-based or functional assay

Chain of OB-Rb, full-length (long isoform) leptin receptor expressed on transfected GT1-7 cells (mouse), P48356 (P48356 22-1162): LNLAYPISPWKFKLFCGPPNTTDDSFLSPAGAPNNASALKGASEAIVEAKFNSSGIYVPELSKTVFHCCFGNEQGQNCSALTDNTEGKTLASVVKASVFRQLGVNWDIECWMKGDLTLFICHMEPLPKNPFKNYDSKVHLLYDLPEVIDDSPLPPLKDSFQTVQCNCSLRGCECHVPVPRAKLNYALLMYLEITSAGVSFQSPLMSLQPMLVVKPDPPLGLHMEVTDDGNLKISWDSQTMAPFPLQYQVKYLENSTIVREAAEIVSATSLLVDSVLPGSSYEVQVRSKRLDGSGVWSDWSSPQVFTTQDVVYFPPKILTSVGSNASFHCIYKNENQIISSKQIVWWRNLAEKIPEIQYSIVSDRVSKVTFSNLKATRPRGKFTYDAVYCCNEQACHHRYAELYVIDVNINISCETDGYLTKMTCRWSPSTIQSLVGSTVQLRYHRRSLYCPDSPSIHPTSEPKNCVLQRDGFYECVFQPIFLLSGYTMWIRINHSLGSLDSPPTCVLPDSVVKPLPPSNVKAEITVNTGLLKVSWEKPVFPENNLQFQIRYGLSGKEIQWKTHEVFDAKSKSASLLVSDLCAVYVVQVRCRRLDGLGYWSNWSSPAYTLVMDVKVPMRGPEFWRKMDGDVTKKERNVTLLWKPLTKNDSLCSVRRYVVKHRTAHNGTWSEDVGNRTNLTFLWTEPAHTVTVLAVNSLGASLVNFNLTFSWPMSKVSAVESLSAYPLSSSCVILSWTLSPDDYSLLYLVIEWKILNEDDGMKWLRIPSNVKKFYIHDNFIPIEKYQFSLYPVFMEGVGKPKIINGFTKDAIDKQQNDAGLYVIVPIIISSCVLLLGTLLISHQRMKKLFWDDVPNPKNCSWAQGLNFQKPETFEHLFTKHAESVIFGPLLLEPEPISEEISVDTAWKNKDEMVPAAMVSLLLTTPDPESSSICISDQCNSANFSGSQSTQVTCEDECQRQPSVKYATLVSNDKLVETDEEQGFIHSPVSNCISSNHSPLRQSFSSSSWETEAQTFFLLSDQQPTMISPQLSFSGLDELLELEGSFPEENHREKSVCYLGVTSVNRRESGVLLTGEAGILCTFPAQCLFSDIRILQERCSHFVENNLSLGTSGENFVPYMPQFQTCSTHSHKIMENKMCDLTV

B1: recombinant mouse leptin, P41160 22-167 (ligand)
chain: VPIQKVQDDTKTLIKTIVTRINDISHTQSVSAKQRVTGLDFIPGLHPILSLSKMDQTLAVYQQVLTSLPSQNVLQIANDLENLRDLLHLLAFSKSCSLPQTSGLQKPESLDGVLEASLYSTEVVALSRLQGSLQDILQQLDVSPEC
B1 showed an SEAP activity (HRRE-SEAP reporter in GT1-7 cells) of 11 fold.
